Test results from US20230212244A1 (IMMATICS BIOTECHNOLOGIES, published 2023).

target: T1, HLA-A*02:01 (human); experiment: UV-ligand exchange ELISA (anti-β2m), peptide exchange yield grade
T1 construct: MHC class I monomer made peptide-receptive by UV cleavage of a UV-sensitive ligand; also called peptide-receptive MHC molecules
Text: Candidate peptides for T cell based therapies according to the present invention were further tested for their MHC binding capacity (affinity). The individual peptide-MHC complexes were produced by UV-ligand exchange, where a UV-sensitive peptide is cleaved upon UV-irradiation, and exchanged with the peptide of interest as analyzed. Only peptide candidates that can effectively bind and stabilize the peptide-receptive MHC molecules prevent dissociation of the MHC complexes. To determine the yield of the exchange reaction, an ELISA was performed based on the detection of the light chain (β2m) of stabilized MHC complexes. The assay was performed as generally described in Rodenko et al. (Rodenko et al., 2006).
96 well MAXISorp plates (NUNC) were coated over night with 2ug/ml streptavidin in PBS at room temperature, washed 4× and blocked for1h at 37° C. in 2% BSA containing blocking buffer. Refolded HLA-A*02:01/MLA-001 monomers served as standards, covering the range of 15-500 ng/ml. Peptide-MHC monomers of the UV-exchange reaction were diluted 100 fold in blocking buffer. Samples were incubated for 1h at 37° C., washed four times, incubated with 2 ug/ml HRP conjugated anti-β2m for 1h at 37° C., washed again and detected with TMB solution that is stopped with […]. Absorption was measured at 450 nm. Candidate peptides that show a high exchange yield (preferably higher than 50%, most preferred higher than 75 %) are generally preferred for a generation and production of antibodies or fragments thereof, and/or T cell receptors or fragments thereof, as they show sufficient avidity to the MHC molecules and prevent dissociation of the MHC complexes.

Binder	peptide exchange yield [%]
ALLGGGPYML [peptide ALLGGGPYML (SEQ ID NO: 107)]	50 to 75
YLFEKTFNM [peptide YLFEKTFNM (SEQ ID NO: 11)]	50 to 75
TLQPVDNSTISL [peptide TLQPVDNSTISL (SEQ ID NO: 117)]	20 to 50
SLFDVSHML [peptide SLFDVSHML (SEQ ID NO: 115)]	50 to 75
YQFDKVGILTL [peptide YQFDKVGILTL (SEQ ID NO: 149)]	50 to 75
GLLDPSVFHV [peptide GLLDPSVFHV (SEQ ID NO: 158)]	50 to 75
LVYQFVHPI [peptide LVYQFVHPI (SEQ ID NO: 116)]	20 to 50
SLIERDLKL [peptide SLIERDLKL (SEQ ID NO: 157)]	50 to 75
VLYEGVDEV [peptide VLYEGVDEV (SEQ ID NO: 120)]	20 to 50
FLDKPEDVLL [peptide FLDKPEDVLL (SEQ ID NO: 14)]	20 to 50
GVAGGSILKGV [peptide GVAGGSILKGV (SEQ ID NO: 134)]	≥ 75
ILFSEDSTKLFV [peptide ILFSEDSTKLFV (SEQ ID NO: 153)]	50 to 75
FLLAEDTKV [peptide FLLAEDTKV (SEQ ID NO: 13)]	50 to 75
ILYDLQQNL [peptide ILYDLQQNL (SEQ ID NO: 113)]	20 to 50
VLIDVLKEL [peptide VLIDVLKEL (SEQ ID NO: 129)]	50 to 75
SLMGMVLKL [peptide SLMGMVLKL (SEQ ID NO: 122)]	50 to 75
QLTEIKPLL [peptide QLTEIKPLL (SEQ ID NO: 137)]	50 to 75
KMLDEILLQL [peptide KMLDEILLQL (SEQ ID NO: 164)]	≥ 75
SLAELVPGVGGI [peptide SLAELVPGVGGI (SEQ ID NO: 108)]	50 to 75
KLLAVIHEL (also called RAD54B-002) [peptide KLLAVIHEL (SEQ ID NO: 152)]	20 to 50
YALDLSTFL [peptide YALDLSTFL (SEQ ID NO: 105)]	50 to 75
RLAELTVDEFLA [peptide RLAELTVDEFLA (SEQ ID NO: 127)]	50 to 75
GLGGSQLIDTHL [peptide GLGGSQLIDTHL (SEQ ID NO: 130)]	20 to 50

Binder	peptide exchange yield [%]
VLVDDDGIKVV [peptide … (SEQ ID NO: 159)]	20 to 50
KLMDYIDEL [peptide KLMDYIDEL (SEQ ID NO: 162)]	50 to 75
LLGELPRLLLL [peptide LLGELPRLLLL (SEQ ID NO: 110)]	50 to 75
MLDDRAYLV [peptide MLDDRAYLV (SEQ ID NO: 128)]	20 to 50
RLLENMTEVV [peptide … (SEQ ID NO: 148)]	50 to 75
LLNDRIWLA [peptide LLNDRIWLA (SEQ ID NO: 144)]	50 to 75
TAVGHALVL [peptide TAVGHALVL (SEQ ID NO: 114)]	10 to 20
KLQEEIPVL [peptide KLQEEIPVL (SEQ ID NO: 135)]	20 to 50
KLSDVWKEL [peptide KLSDVWKEL (SEQ ID NO: 143)]	50 to 75
SLVQRVETI (also called ECT2-001) [peptide SLVQRVETI (SEQ ID NO: 142)]	50 to 75
SAQGSDVSLTACKV [peptide SAQGSDVSLTACKV (SEQ ID NO: 151)]	50 to 75
VLLNEILEQV [peptide VLLNEILEQV (SEQ ID NO: 139)]	50 to 75
KLPSETIFVGC [peptide KLPSETIFVGC (SEQ ID NO: 154)]	50 to 75
RMYNKIFAI [peptide RMYNKIFAI (SEQ ID NO: 10)]	50 to 75
SLISEKILL [peptide SLISEKILL (SEQ ID NO: 106)]	50 to 75
AVIEHLERL [peptide AVIEHLERL (SEQ ID NO: 141)]	≥ 75
LLLEVVKQV (also called LLLEVVKQV) [peptide LLLEWKQV (SEQ ID NO: 145)]	50 to 75
KQFEGTVEI [peptide KQFEGTVEI (SEQ ID NO: 138)]	50 to 75
KLLEFDQLQL [peptide KLLEFDQLQL (SEQ ID NO: 160)]	50 to 75
ALIKQLFEA (also called ZNF-002) [peptide ALIKQLFEA (SEQ ID NO: 1)]	50 to 75
LLADLKTMV [peptide LLADLKTMV (SEQ ID NO: 118)]	50 to 75
RLLGEEVVRV (also called RLLGEEVVRV) [peptide … (SEQ ID NO: 155)]	50 to 75
RLLHEVQEL [peptide RLLHEVQEL (SEQ ID NO: 163)]	50 to 75

Binder	peptide exchange yield [%]
ALVQGILERV [peptide ALVQGILERV (SEQ ID NO: 12)]	50 to 75
LLNEILEQV [peptide LLNEILEQV (SEQ ID NO: 140)]	50 to 75
KLGQVLIYL [peptide KLGQVLIYL (SEQ ID NO: 112)]	20 to 50
RLADLEALKV [peptide RLADLEALKV (SEQ ID NO: 150)]	50 to 75
ALDGDQMEL [peptide ALDGDQMEL (SEQ ID NO: 109)]	20 to 50
ALLNAILHSA [peptide ALLNAILHSA (SEQ ID NO: 132)]	50 to 75
KLLDVVHPA [peptide KLLDWHPA (SEQ ID NO: 131)]	20 to 50
SLAPNIISQL [peptide SLAPNIISQL (SEQ ID NO: 121)]	50 to 75
KTLERSYLL [peptide KTLERSYLL (SEQ ID NO: 123)]	20 to 50
LQLDKEFQL [peptide LQLDKEFQL (SEQ ID NO: 15)]	50 to 75
KLFDIFSQQV [peptide KLFDIFSQQV (SEQ ID NO: 136)]	50 to 75
ILLTIKDDTIYL [peptide ILLTIKDDTIYL (SEQ ID NO: 104)]	50 to 75
TLAKYLMEL [peptide TLAKYLMEL (SEQ ID NO: 126)]	50 to 75
FLKNELDNV [peptide FLKNELDNV (SEQ ID NO: 161)]	50 to 75
SLMMTIINL [peptide SLMMTIINL (SEQ ID NO: 156)]	≥ 75
RTFEKIEEV [peptide RTFEKIEEV (SEQ ID NO: 133)]	20 to 50
ILYQTVTGL [peptide ILYQTVTGL (SEQ ID NO: 119)]	20 to 50
ALSDETWGL [peptide ALSDETWGL (SEQ ID NO: 146)]	20 to 50
RVLPPSALQSV [peptide RVLPPSALQSV (SEQ ID NO: 124)]	50 to 75
KLGDFGLLVEL [peptide KLGDFGLLVEL (SEQ ID NO: 125)]	≥ 75
TLTELRAFL [peptide TLTELRAFL (SEQ ID NO: 147)]	≥ 75
